# T1: Myc- and His-tagged C-terminal domain human PTX3 (animal cell expressed) (human, UniProt P26022 179-381)
# T1 construct: also called C-terminal domain of PTX3; C-terminal fragment of PTX3; not shown: Myc and His tags of the pEF4/Myc-His B vector
# T1 sequence: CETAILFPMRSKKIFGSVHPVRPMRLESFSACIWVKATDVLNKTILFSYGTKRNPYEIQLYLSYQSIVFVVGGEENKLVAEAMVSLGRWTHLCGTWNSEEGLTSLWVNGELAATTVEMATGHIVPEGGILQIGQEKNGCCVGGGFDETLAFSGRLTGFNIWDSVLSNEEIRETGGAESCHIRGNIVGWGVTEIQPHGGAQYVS
# Key:
# [1] = biological target: T2, Myc- and His-tagged full-length human PTX3 (human, UniProt P26022 18-381); assay: dot blot: fragments on nitrocellulose, PTX3 overlay, anti-myc detection (FIG. 12A left)
# T2 construct: also called full-length PTX3; Myc-tagged full-length PTX3; not shown: Myc and His tags of the pEF4/Myc-His B vector
# [2] = biological target: T1, Myc- and His-tagged C-terminal domain …; assay: as above
binding result [1],binding result [2],Binder
binds,,EIRRYQKSTELLIRKLPFQR [histone H3 fragment H3-6]
binds,binds,LVGLFEDTNLCAIHAKRVTI [histone H3 fragment H3-11]
